According to patent US8933202B2, “AXL antibodies” (U3 Pharma GmbH, priority 2007, dated 2015):

Columns and labels:
[1] = tested on: HUVEC spheroids; assay: Spheroid-based cellular angiogenesis assay; format: cell-based, human; settings: 25 ng/ml VEGF-A, 24 h
Protocol: AXL is a key regulator of multiple angiogenic behaviors including endothelial cell migration, proliferation, and tube formation in vitro (Holland et al., Cancer Res: 65, 9294-9303, 2005). […] The experiments were pursued in modification of the originally published protocol (Korff and Augustin: J Cell Sci 112: 3249-58, 1999). In brief, spheroids were prepared as described (Korff and Augustin: J Cell Biol 143: 1341-52, 1998) by pipetting 500 human umbilical vein endothelial cells (HUVEC) in a hanging drop on plastic dishes to allow over night spheroid aggregation. 50 HUVEC spheroids were then seeded in 0.9 ml of a collagen solution (2 mg/ml) and pipetted into individual wells of a 24 well plate to allow polymerization. […] Plates were incubated at 37° C. for 24 hours and fixed by adding 4% paraformaldehyde. Sprouting intensity of HUVEC spheroids was quantified by an image analysis system that determines the cumulative sprout length per spheroid using an inverted microscope and the digital imaging software Analysis 3.2 (Soft imaging system, Munster, Germany). The mean of the cumulative sprout length of 10 randomly selected spheroids was analyzed as an individual data point.

[2] = tested on: NCI/ADR-RES ovarian cancer cells; assay: TUNEL staining, combination with doxorubicin; format: cell-based, human; settings: 24 h
Excerpt: As rat anti-Axl antibodies of the invention turned out to interfere with Gas6-mediated anti-apoptosis of serum-starved NIH3T3-Axl cl.7 fibroblasts, the question arose, whether antagonistic anti-Axl antibodies would synergize with chemotherapeutic agents in inducing apoptosis, thereby contributing to overcome drug resistance. In this example, NCI/ADR-RES (originally named MCF-7/AdrR) cells—a ovarian cancer cell line (Liscovitch and Ravid, 2007, Cancer Letters, 245, 350-352) displaying a high level of resistance to several agents including doxorubicin (Fairchild et al., 1987, Cancer Research, 47, 5141-5148; Xu et al., 2002, The Journal of Pharmacology and Experimental Therapeutics, 302, 963-971)—were incubated with the antagonistic anti-Axl antibody 11B7 and/or doxorubicin, and apoptosis rates were determined by TUNEL staining. In brief, 3×10^4 NCI/ADR-RES cells in normal growth medium were seeded per well of an 8-chamber culture slide (BD Falcon, cat#354118) which were pre-incubated with the same medium for 1 h at 37° C. The next morning, normal growth medium was removed and cells were washed with and cultured in serum-reduced (0.5% FCS) medium. In the evening, isotypic control antibody 1D5 or the antagonistic anti-Axl antibody 11B7 were added at final concentrations of 10 μg/ml each. In the morning of day 3, doxorubicin at final concentrations of 100 μM, 150 μM, or 200 μM was added, and cells were incubated at 37° C. After 24 h, cells were rinsed once with PBS, fixed with 4% formaldehyde in PBS (pH 7.5) for 20 min at room temperature, air-dried for 5 min, and stored at −20° C. Using the commercially available Fluorescein-FragEL™ kit (Oncogene, cat#QIA39, presently being distributed through Merck-Calbiochem), TUNEL staining was performed according to the supplier's manual instructions (chapter ‘Fluorescein-FragEL™ of cell preparations fixed on slides’, page 10). Applying fluorescence microscopy, cells were analyzed and photos were taken.

[3] = tested on: NIH3T3-AXL cl.7 fibroblasts; assay: AlamarBlue Gas6-induced proliferation assay; format: cell-based; settings: 20 μg/ml antibody, with or without 400 ng/ml Gas6, 96 h
Protocol: In vitro experiments were conducted in order to determine the ability of the rat anti-AXL antibodies of the invention to inhibit Gas6-induced cell proliferation. For this purpose, 2,500 NIH3T3-AXL cl.7 fibroblasts per well were seeded in FCS-containing medium on 96 well plates over night. […] Cells were treated with or without 400 ng/ml mouse Gas6 (R&D Systems) by adding ligand directly to the antibody solution, and were then left to grow for 96 h. AlamarBlue™ (BIOSOURCE #DAL1100) was added and incubated at 37° C. in the dark. Absorbance was measured at 590 nm every 30 min. The data were taken 4 h after addition of AlamarBlue™.

[4] = target: T1, human AXL-ECD (Homo sapiens, UniProt P30530); assay: Competition ELISA on AXL-ECD coated plates; format: binding; settings: 10 μg/ml unbiotinylated, 0.5 μg/ml biotinylated antibody
T1 construct: purchased R&D Systems 154-AL
T1 sequence (P30530 26-451 limits assumed): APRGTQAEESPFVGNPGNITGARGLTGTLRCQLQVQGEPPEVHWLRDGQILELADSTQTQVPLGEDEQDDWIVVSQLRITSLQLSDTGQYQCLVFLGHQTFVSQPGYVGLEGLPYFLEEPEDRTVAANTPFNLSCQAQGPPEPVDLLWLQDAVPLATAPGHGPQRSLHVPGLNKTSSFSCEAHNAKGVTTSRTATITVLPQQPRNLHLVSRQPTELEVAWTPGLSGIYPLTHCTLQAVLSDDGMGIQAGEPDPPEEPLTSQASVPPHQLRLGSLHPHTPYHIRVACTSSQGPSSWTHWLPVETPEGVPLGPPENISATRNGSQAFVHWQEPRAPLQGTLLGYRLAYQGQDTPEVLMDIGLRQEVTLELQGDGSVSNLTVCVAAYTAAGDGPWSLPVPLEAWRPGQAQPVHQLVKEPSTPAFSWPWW
Protocol: Therefore binding of biotinylated anti-AXL antibodies to AXL-ECD domain-coated plates preincubated with anti-AXL antibodies was determined in a competition ELISA. […] On day 1, black 96 well Maxi-Sorp plates (Nunc) were coated with 100 μl/well of 1 μg/ml human AXL-ECD (R&D Systems #154-AL) in PBS over night at 4° C. […] After washing 6× with wash buffer (PBS, 0.1% TWEEN-20), 80 μl/well AP-conjugated Streptavidin (Chemicon #SA110) diluted 1:4,000 in blocking buffer were added, incubated for 20 min at room temperature washed again 6× with wash buffer and finally washed once with PBS. For detection, 100 μl/well Attophos substrate solution (Roche #11681982) were added. Using a Victor plate reader (Perkin Elmer), the fluorescence of each well was collected at an excitation wavelength of 430 nm an emission wavelength of 580 nm.

B1: 11B7: antagonistic rat anti-AXL monoclonal antibody, rat IgG1 (antibody, V domains shown)
VL: DIQMTQAPSSLPASLGDRVTITCRASQDIGNYLRWFQQKPGKSPRLMISGATNLAAGVPSRFSGSRSGSDYSLTISSLESEDMADYYCLQSKESPWTFGGGTKLELK
VH: EVQLQESGPGLVKPSQSLSLTCSVTGYSITSNYWGWIRKFPGDKMEWMGYITYSGSTSYNPSLKSRISITRDTSKNQFFLQLNSVTSEDTATYYCAITTFYYWGQGVMVTVSS
In the case of B1, the “HUVEC sprouting at the highest antibody concentration” value [1] is reported as “reduced HUVEC sprouting to basal levels”, the “apoptosis (TUNEL staining), co-incubation with 100 μM doxorubicin” value ([2]; 10 μg/ml 11B7 + 100 μM doxorubicin) is reported as “No TUNEL staining, and hence no apoptosis” and the “apoptosis (TUNEL staining), co-incubation with 150 μM doxorubicin” value ([2]; 10 μg/ml 11B7 + 150 μM doxorubicin) is reported as “substantial induction of apoptosis”. For the same molecule, the “apoptosis (TUNEL staining), co-incubation with 200 μM doxorubicin” value ([2]; 10 μg/ml 11B7 + 200 μM doxorubicin, compared to control IgG antibody) was “significantly increased apoptosis rates”, the cell proliferation [3] was “blocked Gas6-induced proliferation” and the “competition with antagonistic anti-AXL antibodies for binding to AXL-ECD” value [4] was “compete with each other for the same or structurally adjacent epitopes”.
